Patent US20030003547

Target: T1, RecA (UniProt P0A7G6)
T1 sequence: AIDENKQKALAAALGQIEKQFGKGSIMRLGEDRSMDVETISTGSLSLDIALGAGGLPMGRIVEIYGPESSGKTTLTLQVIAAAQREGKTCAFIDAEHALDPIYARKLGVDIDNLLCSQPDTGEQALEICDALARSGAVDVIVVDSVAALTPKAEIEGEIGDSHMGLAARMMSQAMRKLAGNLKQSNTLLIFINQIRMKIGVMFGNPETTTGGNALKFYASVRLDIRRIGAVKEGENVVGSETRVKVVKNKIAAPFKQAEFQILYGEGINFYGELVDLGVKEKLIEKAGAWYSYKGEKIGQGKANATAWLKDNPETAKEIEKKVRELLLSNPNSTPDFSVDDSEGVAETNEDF
Assay: EMSA
Conditions: 5'-acridine; C5-propynyl-dU, 5-methyl-dC, 7-deaza-dG in TFO; triethyleneglycol spacer between TFO and adapter; with Y0Gorec plasmid, 15 uM RecA, ATPgammaS, ADP, 12.5 mM MgCl2; 22% without RecA; 100% of complex associated with plasmid in RecA reaction

**Q.** For “NNNNNTNTNNNGNGGNGCGCGTGGCCAGC [TFO1-S + R (GOREC with homologous 40-nt R)]”, which activity (% joint molecules in 5 min) is on record?
**A.** Its activity (% joint molecules in 5 min) is 80.
